According to patent US20240293504A1:

Biological target: CD91 (mouse) (UniProt Q91ZX7)
Test: cell-based or functional assay

UniProt Q91ZX7, sequence (Q91ZX7 20-4545): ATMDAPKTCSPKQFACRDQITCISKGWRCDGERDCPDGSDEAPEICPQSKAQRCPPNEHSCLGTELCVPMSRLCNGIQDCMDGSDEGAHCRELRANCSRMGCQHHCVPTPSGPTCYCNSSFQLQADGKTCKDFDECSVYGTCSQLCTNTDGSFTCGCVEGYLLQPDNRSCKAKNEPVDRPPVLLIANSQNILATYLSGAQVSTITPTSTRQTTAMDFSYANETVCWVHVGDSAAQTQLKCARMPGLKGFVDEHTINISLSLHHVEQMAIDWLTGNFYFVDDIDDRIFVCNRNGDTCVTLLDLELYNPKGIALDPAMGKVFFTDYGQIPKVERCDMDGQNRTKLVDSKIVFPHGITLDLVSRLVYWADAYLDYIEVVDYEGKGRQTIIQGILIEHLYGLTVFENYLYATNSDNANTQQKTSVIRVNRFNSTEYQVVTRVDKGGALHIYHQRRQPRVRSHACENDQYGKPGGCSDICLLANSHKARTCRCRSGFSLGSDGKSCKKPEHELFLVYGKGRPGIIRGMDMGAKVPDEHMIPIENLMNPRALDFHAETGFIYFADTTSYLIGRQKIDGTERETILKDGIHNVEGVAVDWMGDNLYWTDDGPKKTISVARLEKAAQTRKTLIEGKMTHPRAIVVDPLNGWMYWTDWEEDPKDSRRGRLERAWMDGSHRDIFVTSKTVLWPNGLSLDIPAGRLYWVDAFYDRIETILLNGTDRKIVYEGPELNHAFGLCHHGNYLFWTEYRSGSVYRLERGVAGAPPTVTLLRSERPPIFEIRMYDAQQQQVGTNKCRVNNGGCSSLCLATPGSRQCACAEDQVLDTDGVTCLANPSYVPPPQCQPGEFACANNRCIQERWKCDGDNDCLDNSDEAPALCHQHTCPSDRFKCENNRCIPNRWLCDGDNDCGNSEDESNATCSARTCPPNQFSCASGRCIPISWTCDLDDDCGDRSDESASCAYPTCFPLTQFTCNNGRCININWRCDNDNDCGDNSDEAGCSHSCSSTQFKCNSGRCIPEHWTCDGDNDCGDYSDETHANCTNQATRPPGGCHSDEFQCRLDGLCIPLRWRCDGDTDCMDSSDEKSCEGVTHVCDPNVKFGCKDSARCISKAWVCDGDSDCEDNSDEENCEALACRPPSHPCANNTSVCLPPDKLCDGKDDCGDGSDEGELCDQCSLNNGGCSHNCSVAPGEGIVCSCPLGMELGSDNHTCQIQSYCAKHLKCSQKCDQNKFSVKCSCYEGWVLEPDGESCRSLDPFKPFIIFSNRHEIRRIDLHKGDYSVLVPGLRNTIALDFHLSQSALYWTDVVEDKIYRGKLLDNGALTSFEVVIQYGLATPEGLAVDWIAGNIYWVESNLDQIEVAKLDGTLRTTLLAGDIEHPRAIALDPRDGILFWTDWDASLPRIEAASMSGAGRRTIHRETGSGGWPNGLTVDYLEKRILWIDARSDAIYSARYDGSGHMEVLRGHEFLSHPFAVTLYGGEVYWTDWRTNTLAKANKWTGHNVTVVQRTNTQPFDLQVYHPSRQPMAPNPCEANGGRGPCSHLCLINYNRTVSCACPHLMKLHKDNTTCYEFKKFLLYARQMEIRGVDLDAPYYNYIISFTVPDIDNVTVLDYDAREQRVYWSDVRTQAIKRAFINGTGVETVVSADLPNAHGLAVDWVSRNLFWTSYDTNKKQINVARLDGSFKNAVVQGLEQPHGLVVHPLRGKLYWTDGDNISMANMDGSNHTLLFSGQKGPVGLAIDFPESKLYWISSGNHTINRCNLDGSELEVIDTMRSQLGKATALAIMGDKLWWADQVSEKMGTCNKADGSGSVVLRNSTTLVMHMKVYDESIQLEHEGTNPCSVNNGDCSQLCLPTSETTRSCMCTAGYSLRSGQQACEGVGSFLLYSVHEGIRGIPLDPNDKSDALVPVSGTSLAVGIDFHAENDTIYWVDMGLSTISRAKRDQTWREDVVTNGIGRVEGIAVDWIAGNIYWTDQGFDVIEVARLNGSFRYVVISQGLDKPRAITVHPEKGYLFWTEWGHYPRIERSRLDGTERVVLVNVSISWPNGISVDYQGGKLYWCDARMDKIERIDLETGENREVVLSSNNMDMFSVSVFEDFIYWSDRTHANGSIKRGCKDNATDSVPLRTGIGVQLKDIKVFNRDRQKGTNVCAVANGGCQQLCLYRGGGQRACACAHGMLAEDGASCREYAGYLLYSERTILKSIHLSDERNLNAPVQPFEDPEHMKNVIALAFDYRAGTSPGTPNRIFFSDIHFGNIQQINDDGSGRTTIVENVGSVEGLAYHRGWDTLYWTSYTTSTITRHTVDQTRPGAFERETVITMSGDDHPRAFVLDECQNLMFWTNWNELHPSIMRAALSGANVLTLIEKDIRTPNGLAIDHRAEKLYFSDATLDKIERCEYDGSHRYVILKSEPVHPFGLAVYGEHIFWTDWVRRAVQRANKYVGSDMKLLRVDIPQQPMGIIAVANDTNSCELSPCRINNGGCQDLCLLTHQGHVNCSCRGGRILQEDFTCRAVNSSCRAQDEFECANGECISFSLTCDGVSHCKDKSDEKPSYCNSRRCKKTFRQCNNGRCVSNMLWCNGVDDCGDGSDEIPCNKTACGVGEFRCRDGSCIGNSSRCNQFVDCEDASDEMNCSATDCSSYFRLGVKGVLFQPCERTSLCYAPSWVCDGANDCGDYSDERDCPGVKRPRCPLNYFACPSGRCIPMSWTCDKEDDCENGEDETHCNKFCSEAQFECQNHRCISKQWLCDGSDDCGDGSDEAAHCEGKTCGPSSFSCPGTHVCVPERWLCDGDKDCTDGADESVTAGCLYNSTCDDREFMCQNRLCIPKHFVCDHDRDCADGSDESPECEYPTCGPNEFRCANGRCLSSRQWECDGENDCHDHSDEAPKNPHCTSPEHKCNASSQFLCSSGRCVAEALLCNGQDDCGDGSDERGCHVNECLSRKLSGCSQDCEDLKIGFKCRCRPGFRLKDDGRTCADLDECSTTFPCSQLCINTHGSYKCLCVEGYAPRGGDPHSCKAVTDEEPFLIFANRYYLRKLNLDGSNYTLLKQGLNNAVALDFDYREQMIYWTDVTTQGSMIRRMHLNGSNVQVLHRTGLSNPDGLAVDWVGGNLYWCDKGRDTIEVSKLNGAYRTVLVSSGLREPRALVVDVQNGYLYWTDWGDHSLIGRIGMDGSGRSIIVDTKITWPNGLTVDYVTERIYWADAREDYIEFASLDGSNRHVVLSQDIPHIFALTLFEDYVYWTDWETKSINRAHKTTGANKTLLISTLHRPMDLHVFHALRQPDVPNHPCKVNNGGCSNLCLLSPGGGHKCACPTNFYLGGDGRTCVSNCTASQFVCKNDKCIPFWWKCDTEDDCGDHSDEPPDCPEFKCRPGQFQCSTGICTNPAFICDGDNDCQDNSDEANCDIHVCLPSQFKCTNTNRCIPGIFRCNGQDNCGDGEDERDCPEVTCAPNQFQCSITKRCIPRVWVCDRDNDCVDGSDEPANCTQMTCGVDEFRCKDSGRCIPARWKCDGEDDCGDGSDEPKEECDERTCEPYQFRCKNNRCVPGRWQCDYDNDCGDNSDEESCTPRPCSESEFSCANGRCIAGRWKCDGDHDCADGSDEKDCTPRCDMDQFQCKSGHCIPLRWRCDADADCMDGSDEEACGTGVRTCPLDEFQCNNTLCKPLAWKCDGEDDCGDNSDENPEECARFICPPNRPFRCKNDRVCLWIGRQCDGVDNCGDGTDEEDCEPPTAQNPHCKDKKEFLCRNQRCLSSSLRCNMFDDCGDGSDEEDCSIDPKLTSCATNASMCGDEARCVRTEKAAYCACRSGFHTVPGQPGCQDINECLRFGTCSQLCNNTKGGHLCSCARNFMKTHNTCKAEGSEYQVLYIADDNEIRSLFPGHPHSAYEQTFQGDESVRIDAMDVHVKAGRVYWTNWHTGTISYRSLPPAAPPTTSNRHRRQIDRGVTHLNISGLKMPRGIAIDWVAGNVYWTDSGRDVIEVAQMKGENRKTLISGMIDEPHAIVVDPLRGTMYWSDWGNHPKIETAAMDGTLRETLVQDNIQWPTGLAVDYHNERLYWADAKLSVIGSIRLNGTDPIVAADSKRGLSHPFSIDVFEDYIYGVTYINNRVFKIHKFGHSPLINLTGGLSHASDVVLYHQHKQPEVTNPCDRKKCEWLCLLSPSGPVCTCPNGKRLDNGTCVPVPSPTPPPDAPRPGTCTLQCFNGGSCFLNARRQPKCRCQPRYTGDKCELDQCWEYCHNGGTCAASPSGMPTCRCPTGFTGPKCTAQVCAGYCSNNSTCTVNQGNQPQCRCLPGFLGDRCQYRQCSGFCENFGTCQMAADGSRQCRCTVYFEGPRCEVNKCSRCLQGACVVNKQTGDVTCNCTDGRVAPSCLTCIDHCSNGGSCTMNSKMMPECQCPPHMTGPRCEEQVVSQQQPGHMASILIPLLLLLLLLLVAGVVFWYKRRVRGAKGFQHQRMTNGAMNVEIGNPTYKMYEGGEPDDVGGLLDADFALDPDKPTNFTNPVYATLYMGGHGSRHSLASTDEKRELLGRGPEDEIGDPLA

IFN alpha MFI (Fold Change), RAW264.7 M1 macrophages pulsed with calreticulin 10 ug/ml for 20 min: 7.5 fold
IFN beta MFI (Fold Change), RAW264.7 M1 macrophages pulsed with calreticulin 10 ug/ml for 20 min: 7 fold
IL-12 MFI (Fold Change), RAW264.7 M1 macrophages pulsed with calreticulin 10 ug/ml for 20 min: 3.5 fold
IL-15 MFI (Fold Change), RAW264.7 M1 macrophages pulsed with calreticulin 10 ug/ml for 20 min: 3.5 fold
Substance: calreticulin (CRT) (ligand)
